The target of test [1] is human mesothelin-Fc fusion protein (human).
Test [2] has the same target. Put plainly: SPR; Biacore T200; human mesothelin-Fc captured via amine-coupled anti-human IgG (Fc) antibody on a CM5 chip; CA-125-His-Avi and anti-mesothelin Fab injected consecutively and conversely (dual injects, 120 s contact each); PBS with 0.05% Tween 20, dilution with 1 mg/ml BSA; 25 °C. A general note: SPR reads the build-up and loss of mass on a sensor chip optically.

Sequence of human mesothelin-Fc fusion protein (human) (Q13421 other isoform, or with tags, fused parts or gaps): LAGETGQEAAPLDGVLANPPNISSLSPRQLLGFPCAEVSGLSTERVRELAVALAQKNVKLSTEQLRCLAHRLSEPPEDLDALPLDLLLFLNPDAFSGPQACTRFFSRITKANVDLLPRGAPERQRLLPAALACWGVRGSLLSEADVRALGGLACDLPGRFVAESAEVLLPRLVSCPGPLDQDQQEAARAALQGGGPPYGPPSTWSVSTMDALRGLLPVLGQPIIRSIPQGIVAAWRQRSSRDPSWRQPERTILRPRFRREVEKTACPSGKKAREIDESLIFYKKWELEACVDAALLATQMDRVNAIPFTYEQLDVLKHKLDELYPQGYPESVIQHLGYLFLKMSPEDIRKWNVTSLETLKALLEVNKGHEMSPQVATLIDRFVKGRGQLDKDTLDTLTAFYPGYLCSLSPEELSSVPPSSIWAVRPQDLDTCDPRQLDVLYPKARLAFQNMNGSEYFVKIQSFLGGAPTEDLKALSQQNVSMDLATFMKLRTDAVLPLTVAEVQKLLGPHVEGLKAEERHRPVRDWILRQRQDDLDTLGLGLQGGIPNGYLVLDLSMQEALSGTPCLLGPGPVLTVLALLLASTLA

Substance “CA-125-HisAvi (recombinant CA-125, extracellular portion) (domain or fragment)” displayed a the same heterotypic cell adhesion after pre-incubation of the NCI-H358-MSLN clones with RG7787 Fab: no NCI-H358 cells recovered for clones 4D8, 4H3 and 1G2; clone 2C5 only partly blocked in test [1] of 10%. In test [2], this substance showed an occupancy of mesothelin at maximal saturation of 70%.
